Measured values taken from patent US20100233154A1, “TARGETED BINDING AGENTS DIRECTED TO HEPARANASE AND USES THEREOF 463” (MedImmune Limited, priority 2008, published 2010).

Columns and labels:
[1] = system: cynomolgus heparanase; assay: Cross species capture ELISA, cynomolgus heparanase; type: binding; details: min 0.06, max 1.5 OD units
Experimental: (§1) Initially, cross species binding to human, murine and cynomolgus heparanase was determined in an ELISA assay in which heparanase was captured onto plates using a rabbit anti-heparanase antibody (Raybiotech, Cat. IP-14-155). Exhaustive supernatants were added to the plates at a final dilution of 1:5 and bound antibody detected with a rabbit anti-human IgG Fc.

[2] = system: HCT116 xenograft; assay: Subcutaneous xenograft tumour growth, HCT116; type: in vivo, SCID mice; details: once weekly i.p.; 10E9.1 at 15 mg per kg
Experimental: (§2) MCF7-Hpa1#19 and HCT116 tumour cells were harvested from sub-confluent cultures. A total of 5×10^6 (MCF7-Hpa1#19) or 10^7 (HCT116) tumour cells were inoculated subcutaneously into the flank of male SCID mice. HCT116 tumour cells were implanted in PBS; […] cells were implanted in PBS containing 50% matrigel.
(§3) When tumours had attained ˜200 mm^3, tumour bearing mice were randomised into treatment groups and dosed with the following; PBS; an isotype matched control IgG2 antibody, 15 mg per kg; anti-heparanase antibody 10E9.1, 7.5 or 15 mg per kg. All treatments were administered once weekly i.p. Tumour growth was measured twice per week using calipers and tumour volumes calculated according to an ellipsoid volume is formula (3.142/6×length×width×width) from measures of the largest tumour diameter and two opposing widths (FIG. 11).

[3] = system: MDA MB231-Hpa1#4 cells; assay: Heparanase expression in cells cultured with antibody (Western blot); type: cell-based, human; details: 25 μg per ml antibody, 72 hrs, compared to untreated or IgG2 control
Experimental: MDA MB231-Hpa1#4 cells were cultured in the presence of 25 μg per ml anti-human heparanase antibody or control IgG2 antibody (Sigma Cat. No. 1504-1MG) for 72 hrs. Following the removal of culture medium, protein extracts were prepared from the cells in 100 μl RIPA buffer and separated on […] gels and transferred to nitrocellulose as described above. Western blots were probed with an anti-heparanase antibody that detected only pro-heparanase (SantaCruz Cat. No. SC25825).

[4] = target: T1, murine heparanase (Mus musculus, UniProt Q6YGZ1); assay: Cross species capture ELISA, murine heparanase; type: binding; details: min 0.06, max 0.9 OD units
T1 construct: made in house; host or cells: Hek293 cells (conditioned medium), inferred for the ELISA
T1 sequence (Q6YGZ1 28-535): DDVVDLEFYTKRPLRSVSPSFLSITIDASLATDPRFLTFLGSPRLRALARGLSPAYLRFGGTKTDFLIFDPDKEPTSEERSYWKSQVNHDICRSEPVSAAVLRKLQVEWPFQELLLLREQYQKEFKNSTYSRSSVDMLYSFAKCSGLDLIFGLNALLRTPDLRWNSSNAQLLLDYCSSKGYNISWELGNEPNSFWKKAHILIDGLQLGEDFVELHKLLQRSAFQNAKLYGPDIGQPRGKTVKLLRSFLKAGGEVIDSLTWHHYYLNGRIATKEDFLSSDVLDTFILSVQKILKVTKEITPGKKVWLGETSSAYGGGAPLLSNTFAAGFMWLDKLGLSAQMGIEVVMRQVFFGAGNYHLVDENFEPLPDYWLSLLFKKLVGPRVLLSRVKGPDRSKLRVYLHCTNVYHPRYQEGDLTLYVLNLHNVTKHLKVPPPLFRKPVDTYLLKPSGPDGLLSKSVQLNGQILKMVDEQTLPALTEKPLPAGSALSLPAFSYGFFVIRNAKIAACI
Experimental: as §1

[5] = target: T2, recombinant heparanase captured with rabbit anti-heparanase antibody (Homo sapiens, UniProt Q9Y251); assay: ELISA binding to antibody-captured heparanase; details: antibody capture
T2 construct: Heparanase 8 and 50 kDa sub-units were cloned into pacGP67 as Sma 1-EcoR1 fragments; made in house; host or cells: Hi5 insect cells, baculovirus (pFastBac Dual)
T2 sequence (Q9Y251 158-543 limits assumed): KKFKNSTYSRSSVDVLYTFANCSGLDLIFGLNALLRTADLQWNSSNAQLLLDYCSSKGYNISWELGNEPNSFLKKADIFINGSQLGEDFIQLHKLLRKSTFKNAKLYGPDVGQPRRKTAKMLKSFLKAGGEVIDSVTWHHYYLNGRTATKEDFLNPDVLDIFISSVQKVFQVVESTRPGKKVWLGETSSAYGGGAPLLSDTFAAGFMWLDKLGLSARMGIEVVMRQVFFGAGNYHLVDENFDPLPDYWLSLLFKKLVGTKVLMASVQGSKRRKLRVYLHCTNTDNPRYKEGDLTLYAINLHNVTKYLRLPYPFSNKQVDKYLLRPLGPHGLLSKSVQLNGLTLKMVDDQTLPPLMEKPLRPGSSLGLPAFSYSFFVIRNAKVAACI
T2 sequence (Q9Y251 36-109 limits assumed): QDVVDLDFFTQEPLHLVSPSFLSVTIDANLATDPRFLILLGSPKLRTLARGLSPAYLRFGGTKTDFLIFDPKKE
Experimental: (§4) Titres of antibodies from Campaigns 1 and 2 were determined in an ELISA. Costar 3368 medium binding plates were coated directly with recombinant human heparanase or plates were coated with Rabbit anti-heparanase antibody (Raybiotech, Cat. IP-14-155) to capture recombinant heparanase. Directly coated heparanase was detected in three separate plates by mouse (InSight Cat. INS-26-1-0000), goat (Santa Cruz, Cat. sc26136) or rabbit (Raybiotech, Cat. IP-14-155) anti-heparanase antibodies, and quantified using appropriate secondary antibodies. Antibody captured heparanase was detected using mouse anti-heparanase (Insight Cat. INS-26-1-0000). At the end of the immunisation program, fusions were performed using mouse myeloma cells and lymphocytes isolated from the spleens and lymph nodes of the immunised mice by means of electroporation, as described in Example 2.
(§5) Initial screening to detect antibodies binding to human heparanase in both direct coating and antibody capture ELISAs as described above identified 800 hybridomas for further testing; 535 IgG2 from Campaign 1 and 2 and 265 IgG4 from Campaign 2. Enzyme inhibition assays and cross species binding to cynomolgus and murine heparanase, in an antibody capture ELISA, identifed 12 antibodies that were taken forward for sub-cloning to provide purified antibodies for further analysis. Subsequently, confirmation of activity against human heparanase (FIGS. 3 and 4) and inhibition of recombinant cynomolgus and murine heparanase activity in the HS-cryptate degradation assay (FIG. 5a-c), together with sequence analysis, identified 8 antibodies that are described in the table below.

[6] = target: T3, recombinant human heparanase (Homo sapiens, UniProt Q9Y251); assay: ELISA binding to directly coated recombinant human heparanase
T3 construct: Heparanase 8 and 50 kDa sub-units were cloned into pacGP67 as Sma 1-EcoR1 fragments; made in house; host or cells: Hi5 insect cells, baculovirus (pFastBac Dual)
T3 sequence (Q9Y251 158-543 limits assumed): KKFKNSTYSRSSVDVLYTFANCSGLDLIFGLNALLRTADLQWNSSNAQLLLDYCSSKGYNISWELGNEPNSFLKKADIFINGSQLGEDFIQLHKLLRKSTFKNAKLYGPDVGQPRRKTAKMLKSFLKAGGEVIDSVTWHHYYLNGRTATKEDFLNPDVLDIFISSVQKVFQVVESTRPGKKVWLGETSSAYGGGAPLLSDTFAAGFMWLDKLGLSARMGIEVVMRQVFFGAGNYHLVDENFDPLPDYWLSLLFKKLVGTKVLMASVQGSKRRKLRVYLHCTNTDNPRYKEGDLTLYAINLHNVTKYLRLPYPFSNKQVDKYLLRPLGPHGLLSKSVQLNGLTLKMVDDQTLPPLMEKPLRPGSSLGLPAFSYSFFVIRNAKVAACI
T3 sequence (Q9Y251 36-109 limits assumed): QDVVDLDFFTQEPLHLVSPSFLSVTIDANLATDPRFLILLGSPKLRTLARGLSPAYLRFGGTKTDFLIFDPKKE
Experimental: as §4, §5

[7] = system: MCF7-Hpa1#19 xenograft; assay: Subcutaneous xenograft tumour growth, MCF7-Hpa1#19; type: in vivo, SCID mice; details: once weekly i.p.; 10E9.1 at 7.5 or 15 mg per kg
Experimental: as §2, §3

[8] = target: T4, human heparanase (Homo sapiens, UniProt Q9Y251); assay: Cross species capture ELISA, human heparanase; type: binding
T4 sequence (Q9Y251 36-543): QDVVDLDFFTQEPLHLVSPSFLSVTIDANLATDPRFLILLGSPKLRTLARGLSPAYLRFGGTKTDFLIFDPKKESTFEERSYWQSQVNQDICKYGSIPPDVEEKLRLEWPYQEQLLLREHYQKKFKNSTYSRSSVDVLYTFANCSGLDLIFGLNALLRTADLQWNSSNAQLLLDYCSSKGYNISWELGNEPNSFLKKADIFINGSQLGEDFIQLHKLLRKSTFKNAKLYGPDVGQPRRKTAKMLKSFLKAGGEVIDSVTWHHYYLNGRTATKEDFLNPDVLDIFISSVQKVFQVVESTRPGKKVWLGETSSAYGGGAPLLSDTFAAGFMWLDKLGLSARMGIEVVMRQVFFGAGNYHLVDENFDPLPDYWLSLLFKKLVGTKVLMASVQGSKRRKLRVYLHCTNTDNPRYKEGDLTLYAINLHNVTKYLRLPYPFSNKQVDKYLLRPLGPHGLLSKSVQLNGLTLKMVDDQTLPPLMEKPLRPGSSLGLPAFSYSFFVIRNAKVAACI
Experimental: as §1

[9] = target: T5, Recombinant Hpa1 (Homo sapiens, UniProt Q9Y251); assay: Medium resolution Biacore affinity; type: binding; details: purified antibody captured on CM4 chip; Hpa1 1 nM and 10 nM; 25° C.
T5 construct: Heparanase 8 and 50 kDa sub-units were cloned into pacGP67 as Sma 1-EcoR1 fragments; made in house; host or cells: Hi5 insect cells, baculovirus (pFastBac Dual)
T5 sequence (Q9Y251 158-543 limits assumed): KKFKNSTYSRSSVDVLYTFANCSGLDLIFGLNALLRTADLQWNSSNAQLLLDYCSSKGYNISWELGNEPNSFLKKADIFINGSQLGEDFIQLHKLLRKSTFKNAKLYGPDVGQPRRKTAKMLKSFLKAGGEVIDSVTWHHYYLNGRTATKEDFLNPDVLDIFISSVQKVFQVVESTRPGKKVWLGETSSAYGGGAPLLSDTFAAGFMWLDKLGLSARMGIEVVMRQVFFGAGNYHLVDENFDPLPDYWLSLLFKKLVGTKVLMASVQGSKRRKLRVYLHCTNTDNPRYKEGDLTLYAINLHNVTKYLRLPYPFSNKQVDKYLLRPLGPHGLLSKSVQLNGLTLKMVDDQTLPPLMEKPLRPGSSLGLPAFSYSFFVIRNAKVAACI
T5 sequence (Q9Y251 36-109 limits assumed): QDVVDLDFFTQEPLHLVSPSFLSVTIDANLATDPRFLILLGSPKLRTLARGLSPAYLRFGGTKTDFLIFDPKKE
Experimental: For medium resolution Biacore™ tests, cloned and purified antibodies were used. Each of three purified antibodies (10E9.1, 15A1.2, and 15A11.1) were captured onto a high-density goat anti-human antibody surface over a CM4 Biacore™ chip. Recombinant Hpa1 was diluted to the desired concentration (1 nM and 10 nM) in 10 mM HEPES, 150 mM NaCl, 0.005% tween-20, 0.1 mg per ml BSA pH7.4 (25° C.) immediately prior to injection. Data were fit globally to a 1:1 interaction model with a term for mass transport included. The resulting KD values are summarised below in Table 4.

Binding to heparanase Cyno [1]: 0.14 OD units
Binding to heparanase Mouse [4]: 0.17 OD units
Binding to captured heparanase [5]: 0.5 OD units
Binding to direct coated heparanase [6]: 0.07 OD units
Binding to heparanase Human [8]: 0.21 OD units
ka [9]: 3.6e+06 M⁻¹ s⁻¹
kd [9]: 0.000309 s⁻¹
B1: 15A11.1: fully human anti-heparanase monoclonal antibody, G2κ; VH SEQ ID NO 10, VL SEQ ID NO 12; ATCC PTA-9490 (antibody, listed as Homo Sapiens, V domains shown)
VH: QVQLVQSGAEVKKPGASVKVSCKVSGDTLTELSMHWVRQTPGKGLEWMGGFDPEDGETIYAQKFQGRVTMTGDTSTDTAYMELSSLRSEDTAVYYCATEGDYGDSEEYYYYYGMDVWGQGTTVTVSS
VL: DIQMTQSPSSLSASVGDRVTITCRASQGISNYLAWYQQKPGKVPKLLIYAASTLQSGVPSRFSGSGSGTDFTLTISSLQPEDVATYYCQKYNRAPFTFGPGTKVDIK
notes: fully human anti-heparanase monoclonal antibody, G2κ; ATCC PTA-9490
Tumour growth inhibition [2]: not inhibited
Inhibition of heparanase expression [3]: significant inhibition of heparanase expression
Tumour growth inhibition [7]: not inhibited
